Among the data in patent publication US20260347469 (published 2026) are Kd values, retold here.

The target in the assay is 4-1BB-Fc (human, UniProt Q07011). Briefly: BLI, 24C, avidity.
Chain of 4-1BB-Fc (Q07011 24-186): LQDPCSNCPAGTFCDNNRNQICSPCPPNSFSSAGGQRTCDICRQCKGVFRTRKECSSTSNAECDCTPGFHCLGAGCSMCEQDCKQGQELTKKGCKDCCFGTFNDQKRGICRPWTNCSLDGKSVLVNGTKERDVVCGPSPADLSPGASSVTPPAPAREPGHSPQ

B1: D2 (4-1BBL trimer-Fc) (protein)
chain: KEITNALETWGALGQDINLDIPSFQMSDDIDDIKWEKTSDKKKIAQFRKEKETFKEKDTYKLFKNGTLKIKHLKTDDQDIYKVSIYDTKGKNVLEKIFDLKIQERVSKPKISWTCINTTLTCEVMNGTDPELNLYQDGKHLKLSQRVITHKWTTSLSAKFKCTAGNKVSKESSVEPVSCPEKGLDIYLIIGICGGGSLLMVFVALLVFYITKRKKQRSRRNDEELETRAHRVATEERGRKPHQIPASTPQNPATSQHPPPPPGHRSQAPSHRPPPPGHRVQHQPQKRPPAPSGTQVHQQKGPPLPRPRVQPKPPHGAAENSLSPSSN
On to B1, for which the Kd was 20 pM.
